The results in this text go back to patent US20190248900A1 (Y BIOLOGICS, published 2019).

The EC50 is the midpoint of the concentration-response curve. Low values mean an effect from little substance, high ones a need for much substance.

Assay [1] has as its target T1, human PD-1 (NM_005018.2) over-expressed on cells (human, UniProt Q15116 25-288). In words: cell-based or functional assay.
A further assay deals with T2, OSTM1 (Homo sapiens (Human), UniProt Q86WC4 32-284).
T2 sequence: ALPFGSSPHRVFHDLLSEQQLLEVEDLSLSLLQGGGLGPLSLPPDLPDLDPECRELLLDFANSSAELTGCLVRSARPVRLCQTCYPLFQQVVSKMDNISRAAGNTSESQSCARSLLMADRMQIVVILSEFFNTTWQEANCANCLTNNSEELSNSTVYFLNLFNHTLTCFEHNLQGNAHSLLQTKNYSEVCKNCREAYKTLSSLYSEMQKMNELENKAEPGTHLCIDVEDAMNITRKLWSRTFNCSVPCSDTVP
Put plainly: ELISA. On the technique in general: In an ELISA, binding on a coated surface is turned into a signal by an enzyme label.

The next assay concerns the target T3, BTN2A1 (Homo sapiens (Human), UniProt Q7KYR7 29-248).
T3 sequence: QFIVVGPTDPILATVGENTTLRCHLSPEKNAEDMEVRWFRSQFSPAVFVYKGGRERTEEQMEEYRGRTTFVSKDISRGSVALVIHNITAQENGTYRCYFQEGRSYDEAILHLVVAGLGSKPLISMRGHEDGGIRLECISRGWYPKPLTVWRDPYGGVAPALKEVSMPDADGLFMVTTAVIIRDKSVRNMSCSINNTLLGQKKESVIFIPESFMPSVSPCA
In words: ELISA.

In a further assay the target is T4, SOST (Homo sapiens (Human), UniProt Q9BQB4 24-213).
T4 sequence: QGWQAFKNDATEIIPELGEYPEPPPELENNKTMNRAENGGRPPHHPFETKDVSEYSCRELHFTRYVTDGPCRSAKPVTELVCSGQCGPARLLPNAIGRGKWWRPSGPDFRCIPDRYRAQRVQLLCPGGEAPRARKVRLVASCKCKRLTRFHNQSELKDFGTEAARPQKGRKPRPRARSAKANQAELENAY
Put plainly: ELISA.

The target of a further assay is T5, NBL1 (Homo sapiens (Human), UniProt P41271 17-181).
T5 sequence: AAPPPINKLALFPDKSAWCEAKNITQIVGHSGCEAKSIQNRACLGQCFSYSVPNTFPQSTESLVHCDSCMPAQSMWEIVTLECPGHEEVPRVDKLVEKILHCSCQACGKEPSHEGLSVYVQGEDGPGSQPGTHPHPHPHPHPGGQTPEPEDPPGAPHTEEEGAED
In words: ELISA.

In the next assay the target is T6, SEMA5A (Homo sapiens (Human), UniProt Q13591 23-968).
T6 sequence: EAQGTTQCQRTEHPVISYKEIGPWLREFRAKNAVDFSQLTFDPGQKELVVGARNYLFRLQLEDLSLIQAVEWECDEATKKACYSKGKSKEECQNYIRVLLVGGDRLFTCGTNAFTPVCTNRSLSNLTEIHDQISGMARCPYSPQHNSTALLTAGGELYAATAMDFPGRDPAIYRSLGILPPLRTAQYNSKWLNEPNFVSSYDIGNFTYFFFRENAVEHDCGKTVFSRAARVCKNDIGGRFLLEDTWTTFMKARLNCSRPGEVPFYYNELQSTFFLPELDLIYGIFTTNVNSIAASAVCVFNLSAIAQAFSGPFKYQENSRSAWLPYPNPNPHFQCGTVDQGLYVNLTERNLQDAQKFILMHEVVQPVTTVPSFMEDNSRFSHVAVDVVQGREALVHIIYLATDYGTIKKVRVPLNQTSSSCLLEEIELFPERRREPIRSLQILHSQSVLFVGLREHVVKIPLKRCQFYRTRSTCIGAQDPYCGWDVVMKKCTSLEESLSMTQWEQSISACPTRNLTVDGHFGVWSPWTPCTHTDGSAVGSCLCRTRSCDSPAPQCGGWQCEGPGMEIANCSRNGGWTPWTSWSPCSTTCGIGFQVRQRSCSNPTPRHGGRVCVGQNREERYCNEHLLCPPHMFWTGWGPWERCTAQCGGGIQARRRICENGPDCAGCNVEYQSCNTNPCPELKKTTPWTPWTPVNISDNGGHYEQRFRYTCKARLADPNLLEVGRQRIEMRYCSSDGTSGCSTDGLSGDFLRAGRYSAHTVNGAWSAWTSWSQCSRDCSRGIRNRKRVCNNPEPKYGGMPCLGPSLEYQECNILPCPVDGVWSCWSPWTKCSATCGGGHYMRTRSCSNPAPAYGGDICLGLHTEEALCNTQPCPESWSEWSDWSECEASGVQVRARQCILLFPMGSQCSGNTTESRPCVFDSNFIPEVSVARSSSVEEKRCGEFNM
In words: ELISA.

The next assay concerns the target T7, AGR3 (Homo sapiens (Human), UniProt Q8TD06 22-166).
T7 sequence: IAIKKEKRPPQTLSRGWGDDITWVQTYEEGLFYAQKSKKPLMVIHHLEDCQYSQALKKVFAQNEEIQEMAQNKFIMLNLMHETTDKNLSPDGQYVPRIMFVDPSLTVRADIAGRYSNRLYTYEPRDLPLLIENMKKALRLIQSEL
Put plainly: ELISA.

A further assay has as its target T8, PLXDC1 (Homo sapiens (Human), UniProt Q8IUK5 19-426).
T8 sequence: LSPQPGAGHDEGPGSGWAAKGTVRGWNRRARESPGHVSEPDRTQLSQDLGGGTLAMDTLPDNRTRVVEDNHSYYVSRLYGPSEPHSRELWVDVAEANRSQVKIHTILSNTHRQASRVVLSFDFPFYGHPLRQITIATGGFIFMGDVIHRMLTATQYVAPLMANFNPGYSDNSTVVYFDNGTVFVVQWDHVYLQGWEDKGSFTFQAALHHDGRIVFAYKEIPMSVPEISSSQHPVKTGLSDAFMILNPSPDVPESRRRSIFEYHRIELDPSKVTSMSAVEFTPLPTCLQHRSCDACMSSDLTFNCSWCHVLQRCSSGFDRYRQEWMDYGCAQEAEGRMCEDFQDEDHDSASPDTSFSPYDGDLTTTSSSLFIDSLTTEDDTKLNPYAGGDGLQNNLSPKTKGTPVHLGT
In words: ELISA.

For a further assay, the target named is SUSD1 (Homo sapiens (Human), UniProt Q6UWL2 30-721). In words: ELISA.
The target of assay [2] is T1, human PD-1 (NM_005018.2) over-expressed …. Put plainly: cell-based or functional assay. The source holds these as a separate data set.

T1 sequence (Q15116 25-288): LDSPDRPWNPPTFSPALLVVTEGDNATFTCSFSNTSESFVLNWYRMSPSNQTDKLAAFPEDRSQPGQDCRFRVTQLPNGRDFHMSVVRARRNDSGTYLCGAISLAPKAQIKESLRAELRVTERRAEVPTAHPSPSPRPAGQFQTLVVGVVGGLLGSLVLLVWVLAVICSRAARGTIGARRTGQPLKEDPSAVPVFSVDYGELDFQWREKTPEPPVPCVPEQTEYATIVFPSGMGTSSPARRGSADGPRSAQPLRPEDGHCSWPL
SUSD1, sequence (Q6UWL2 30-721 limits assumed): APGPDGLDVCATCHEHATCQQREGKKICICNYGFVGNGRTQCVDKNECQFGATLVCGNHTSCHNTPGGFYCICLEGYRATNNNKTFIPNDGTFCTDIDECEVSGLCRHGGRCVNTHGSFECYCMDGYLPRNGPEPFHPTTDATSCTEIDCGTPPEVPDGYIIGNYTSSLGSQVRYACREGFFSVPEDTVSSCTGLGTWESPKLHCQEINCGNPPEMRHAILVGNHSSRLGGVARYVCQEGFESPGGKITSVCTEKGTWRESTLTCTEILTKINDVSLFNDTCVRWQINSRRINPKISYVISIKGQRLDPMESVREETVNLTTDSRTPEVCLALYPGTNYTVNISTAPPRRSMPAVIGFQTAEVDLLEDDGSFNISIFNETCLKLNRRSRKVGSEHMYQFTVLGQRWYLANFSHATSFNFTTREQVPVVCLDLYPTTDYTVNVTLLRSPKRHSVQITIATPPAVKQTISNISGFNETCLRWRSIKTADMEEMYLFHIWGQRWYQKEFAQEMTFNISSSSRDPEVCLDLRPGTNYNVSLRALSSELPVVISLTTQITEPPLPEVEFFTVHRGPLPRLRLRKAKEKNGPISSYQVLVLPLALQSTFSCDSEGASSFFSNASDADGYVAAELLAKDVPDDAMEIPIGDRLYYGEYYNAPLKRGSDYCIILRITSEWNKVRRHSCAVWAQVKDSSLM

B1: PD1-45D6 (antibody, V domains shown)
VH: QVQLVESGGGVVQPGRSLRLSCAASGFTFSSYAMHWVRQVPGKGLEWVAVISYDGNDKYYADSVKGRFTISRDNSKNTLYLQMNSLRAEDTAVYYCVPTTFEYWGQGSQVTVSS
VL: DIVMTQTPLSLPVTPGEAASISCRSSQSLLDSDDGKTYLDWYLQKPGQSPQLLIYTLSYRASGVPDRFSGSGSGTEFNLRISRVEAEDVGIYYCMQRVEFPFTFGQGTKLDIK
notes: scFv-phage in the screening ELISA; whole IgG in the other assays
The molecule B1 returned an EC50 in assay [1] of 1.29 nM. Moreover, the binding result in the assay with OSTM1, in the assay with BTN2A1, with SOST, with NBL1, with SEMA5A and with AGR3 was “no binding (tested: 1 ug/ml)” each time. For the same molecule, the binding result with PLXDC1 and with SUSD1 was “no binding (tested: 1 ug/ml)” each time. For the same molecule, the “EC50 [nM], PD1/PD-L1 blockade bioassay” value in assay [2] stood at 2 nM.

B2: PD1-52E8 (antibody, V domains shown)
VH: QVQLVQSGGNLVQPGRSLRLSCAASGFTFDDYAMHWVRQAPGKGLEWVSGISWNSGTPGYADSVQGRFTISRDNAKNSLYLQMNSLRAEDTAVYYCARGHNYLDSSYYDYWGQGTLVTVSS
VL: SYELTQPLSLSVAPGQTARITCSGDALSKEYSYWYQQKPGQAPVLVMYKDSERPSGIPERFSGSSSGTTVTLTISGVQAEDEADYYCQSVDSSDTSVVFGGGTKLTVL
notes: as for B1
Regarding B2, in assay [2], the “EC50 [nM], PD1/PD-L1 blockade bioassay” value was found to be 8.43 nM.

B3: PD1-41C9 (antibody, V domains shown)
VH: QMQLVESGGGVVQPGRSLRLSCAASGFTFSSYAMHWVRQAPGKGLEWVAVISYDGSNKYYADSVKGRFTISRDNSKNTLYLQMNRLRSEDTAVYYCTTTTFDSWGQGTLITVSS
VL: DIVMTQTPLSLPVTPGEAASISCRSSQSLLDSEDGNTYLDWYLQKPGQSPQLLIYTLSHRASGVPDRFSGSGSGTDFTLKISRVAAEDVGLYYCLQRMGFPYTFGQGTKLDIK
notes: as for B1
For B3, the EC50 in assay [1] worked out at 3.57 nM. The binding result with OSTM1, with BTN2A1, with SOST, with NBL1, with SEMA5A and with AGR3 was “no binding (tested: 1 ug/ml)” each time. Besides, the binding result with PLXDC1 and in the assay with SUSD1 was “no binding (tested: 1 ug/ml)” throughout. The “EC50 [nM], PD1/PD-L1 blockade bioassay” value in assay [2] is 3.91 nM.

B4: PD1-49A2 (antibody, V domains shown)
VH: QVQLVESGGGVVQPGRSLRLSCAASGFTFSSYAMHWVRQAPGKGLEWVAVISYDGSNKYYADSVKGRFTISRDNPKNTLYLQMNSLRAEDTAVYYCTTTTFDSWGRGTLVTVSS
VL: DIVMTQSPLSLPVTPGEPASISCRSSQSLFDSDDGNTYLDWYLQKPGQSPQLLIYTLSHRASGVPDRFSGSGSGTDFTLKISRVEAEDVGIYYCLQRMGFPYTFGQGTKVEIK
notes: scFv-phage in the screening ELISA; whole IgG in the other assays; also called Parent 49A2
For the molecule B4, a half-maximal effect in assay [1] (EC50) was put at 2.05 nM. The binding result with OSTM1, with BTN2A1, with SOST, with NBL1, in the assay with SEMA5A and in the assay with AGR3 was “no binding (tested: 1 ug/ml)” each time. The binding result with PLXDC1 and with SUSD1 was “no binding (tested: 1 ug/ml)” in each case. Moreover, the “EC50 [nM], PD1/PD-L1 blockade bioassay” value in assay [2] is 3.78 nM.
